± gives the uncertainty stated by the source.
Test: abundance fitness (aPCA) (normalised: wild type 0, dead -1); higher = more abundant; growth selection in yeast, the domain comes from the species named
Details: Homo sapiens

| Substance | abundance fitness |
| --- | --- |
| SAFB-like transcription modulator K45H, Q9NWH9 | -0.372 ± 0.12 |
| SAFB-like transcription modulator V27G, Q9NWH9 | -0.405 ± 0.088 |
| BAG family molecular chaperone regulator 3 F38K, O95817 | -0.31 ± 0.088 |
| SAFB-like transcription modulator E57Y, Q9NWH9 | -0.319 ± 0.11 |
| SAFB-like transcription modulator I22N, Q9NWH9 | -0.659 ± 0.11 |
| BAG family molecular chaperone regulator 3 N43D, O95817 | -0.622 ± 0.31 |
| SAFB-like transcription modulator V44F, Q9NWH9 | 0.002 ± 0.075 |
| SAFB-like transcription modulator L34A, Q9NWH9 | -0.767 ± 0.092 |
| BAG family molecular chaperone regulator 3 P24W, O95817 | -0.659 ± 0.21 |
| SAFB-like transcription modulator K53C, Q9NWH9 | -0.231 ± 0.052 |
| BAG family molecular chaperone regulator 3 I30E, O95817 | -0.226 ± 0.079 |
| BAG family molecular chaperone regulator 3 K29W, O95817 | -0.754 ± 0.29 |
| SAFB-like transcription modulator S32M, Q9NWH9 | -0.051 ± 0.044 |
| SAFB-like transcription modulator N38G, Q9NWH9 | -0.002 ± 0.047 |
| BAG family molecular chaperone regulator 3 F39W, O95817 | -0.42 ± 0.19 |
| BAG family molecular chaperone regulator 3 D20L, O95817 | -0.495 ± 0.088 |
| BAG family molecular chaperone regulator 3 D18H, O95817 | -0.394 ± 0.17 |
| BAG family molecular chaperone regulator 3 D41S, O95817 | -0.868 ± 0.27 |
| BAG family molecular chaperone regulator 3 T46H, O95817 | -0.571 ± 0.4 |
| BAG family molecular chaperone regulator 3 L22P, O95817 | -0.477 ± 0.23 |
| SAFB-like transcription modulator K45Y, Q9NWH9 | -0.005 ± 0.085 |
| SAFB-like transcription modulator G60L, Q9NWH9 | -0.396 ± 0.036 |
| BAG family molecular chaperone regulator 3 R19K, O95817 | 0.042 ± 0.11 |
| SAFB-like transcription modulator T42I, Q9NWH9 | -0.682 ± 0.14 |
| SAFB-like transcription modulator D40H, Q9NWH9 | -0.614 ± 0.24 |

| Substance | abundance fitness |
| --- | --- |
| BAG family molecular chaperone regulator 3 P55D, O95817 | -0.281 ± 0.39 |
| SAFB-like transcription modulator L39E, Q9NWH9 | -0.365 ± 0.054 |
| BAG family molecular chaperone regulator 3 S56G, O95817 | -0.011 ± 0.063 |
| BAG family molecular chaperone regulator 3 N50A, O95817 | 0.249 ± 0.15 |
| BAG family molecular chaperone regulator 3 N43C, O95817 | -0.681 ± 0.38 |
| SAFB-like transcription modulator Q54W, Q9NWH9 | -0.043 ± 0.08 |
| SAFB-like transcription modulator R51P, Q9NWH9 | -0.699 ± 0.13 |
| BAG family molecular chaperone regulator 3 P52S, O95817 | -0.303 ± 0.11 |
| SAFB-like transcription modulator L48E, Q9NWH9 | -0.478 ± 0.086 |
| BAG family molecular chaperone regulator 3 D41E, O95817 | -0.874 ± 0.2 |
| BAG family molecular chaperone regulator 3 D51M, O95817 | -0.658 ± 0.36 |
| SAFB-like transcription modulator K53G, Q9NWH9 | -0.35 ± 0.089 |
| SAFB-like transcription modulator I49T, Q9NWH9 | -0.223 ± 0.072 |
| SAFB-like transcription modulator K35A, Q9NWH9 | -0.08 ± 0.072 |
| BAG family molecular chaperone regulator 3 Q33S, O95817 | -0.265 ± 0.14 |
| SAFB-like transcription modulator L39H, Q9NWH9 | -0.275 ± 0.081 |
| BAG family molecular chaperone regulator 3 Q33K, O95817 | 0.035 ± 0.21 |
| BAG family molecular chaperone regulator 3 T47L, O95817 | -0.613 ± 0.28 |
| SAFB-like transcription modulator K20S, Q9NWH9 | -0.244 ± 0.036 |
| BAG family molecular chaperone regulator 3 P23C, O95817 | -0.932 ± 0.19 |
| SAFB-like transcription modulator K31P, Q9NWH9 | -1.16 ± 0.075 |
| SAFB-like transcription modulator D62G, Q9NWH9 | -0.534 ± 0.054 |
| SAFB-like transcription modulator I28S, Q9NWH9 | -0.411 ± 0.12 |
| SAFB-like transcription modulator N38Y, Q9NWH9 | -0.455 ± 0.11 |

— the Human Domainome abundance scans (Beltran et al. 2025)
